Our source for the EC50 and Kd values is US20250223354A1 (BIOTHEUS, published 2025).

One may read the EC50 as the concentration giving half of the maximal effect. As usually defined, the Kd is the concentration at which binding is half-saturated.

In assay [1] the target is T1, human TIGIT expressed on cells (human, UniProt Q495A1 22-244).
T1 construct: whole, on cells; cDNA encoding human TIGIT in pCHO1.0 for CHO cells; also called CHO-huTIGIT cells
T1 sequence (looked up): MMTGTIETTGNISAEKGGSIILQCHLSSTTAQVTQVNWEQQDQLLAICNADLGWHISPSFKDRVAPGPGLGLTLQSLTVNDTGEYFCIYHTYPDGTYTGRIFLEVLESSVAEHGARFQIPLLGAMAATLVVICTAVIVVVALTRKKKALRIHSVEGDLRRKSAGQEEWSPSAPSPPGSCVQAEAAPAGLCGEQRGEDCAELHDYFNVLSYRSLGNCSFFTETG
As to the kind of experiment: flow cytometry, CHO-huTIGIT cells. The source says:
(§1) Specifically, CHO cells overexpressing human TIGIT (CHO-huTIGIT cells), CHO cells overexpressing cynomolgus TIGIT (CHO-cynoTIGIT cells) and CHO cells overexpressing mouse TIGIT (CHO-muTIGIT cells) were generated by transfection of the pCHO1.0 vector (purchased from Invitrogen) with cDNA encoding human TIGIT, cynomolgus TIGIT and mouse TIGIT cloned into the multiple cloning site (MCS), respectively, followed by pressure screening. The overexpressing cells were expanded and adjusted to an appropriate cell density, and added to a 96-well flow cytometry plate. After centrifugation, the cells were added with a gradiently diluted sample to be tested, and incubated at 4° C. for 30 minutes. The cells were washed twice with PBS, and added with a fluorescent secondary antibody correspondingly diluted to an appropriate concentration, then incubated at 4° C. for 30 minutes, and washed twice with PBS. Cells were resuspended with PBS, and detected on a CytoFlex flow cytometer, and the corresponding MFI was calculated. Graphpad software was used for graphical analysis to obtain EC₅₀ values.
(In general: A flow cytometer gives signals particle by particle.)

Another assay deals with T2, mouse TIGIT-his protein (mouse, UniProt P86176 29-148).
T2 construct: not shown: his tag
T2 sequence: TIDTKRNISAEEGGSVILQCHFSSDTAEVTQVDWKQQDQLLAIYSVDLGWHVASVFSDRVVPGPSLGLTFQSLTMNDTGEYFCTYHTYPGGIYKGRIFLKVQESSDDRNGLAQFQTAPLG
As to the kind of experiment: BLI (ForteBio), IgG on AHQ sensor, 100 nM TIGIT-his, monovalent, 1:1 model. The procedure: (§2) Biofilm layer optical interference technology (ForteBio) was used to determine the binding and dissociation […] values of the anti-TIGIT monoclonal antibodies obtained in Example 1 to human, cynomolgus monkey and mouse TIGIT. Fortebio affinity measurements were performed according to existing methods (Este, P et al., High throughput solution-based measurement of antibody-antigen affinity and epitope binning. Mabs, 2013.5(2): p 270-8).
(§3) The antibody-loaded sensor was incubated in 100 nM TIGIT-his antigen to the plateau phase, and then the sensor was transferred to an analysis buffer and incubated for at least 2 minutes for measuring dissociation rate. The kinetic analysis was performed using a 1:1 binding model.
(In BLI a coated tip is dipped into the sample, and binding shifts an interference pattern.)

The target of another assay is T3, human TIGIT-his protein (human, UniProt Q495A1 22-141).
T3 construct: not shown: his tag
T3 sequence: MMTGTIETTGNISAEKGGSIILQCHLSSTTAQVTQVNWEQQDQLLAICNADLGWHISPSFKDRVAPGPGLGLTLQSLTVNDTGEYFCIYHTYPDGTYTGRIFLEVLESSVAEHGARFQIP
Described as above. The procedure:
as §2, §3

The target in assay [2] is T4, cynomolgus monkey TIGIT-his protein (cynomolgus monkey).
T4 construct: also called Cynomolgus TIGIT-his; not shown: his tag
T4 sequence (chain, as listed by the source): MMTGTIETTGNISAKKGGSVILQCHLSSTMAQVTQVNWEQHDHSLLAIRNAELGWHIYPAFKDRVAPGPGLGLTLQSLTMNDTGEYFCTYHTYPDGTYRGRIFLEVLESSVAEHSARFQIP
Described as above. The procedure: as §2, §3

Assay [3] concerns the target T1, human TIGIT expressed on cells. Briefly: flow cytometry on CHO cells overexpressing human TIGIT, median fluorescence intensity PE-A; unit from the concentration axis.
Excerpt: as §1

The target in assay [4] is T5, cynomolgus TIGIT overexpressed on CHO cells (cynomolgus, UniProt A0A7N9I9V4 89-312).
T5 construct: whole, on cells; also called CHO-cynoTIGIT cells
T5 sequence (A0A7N9I9V4 entry or part of it): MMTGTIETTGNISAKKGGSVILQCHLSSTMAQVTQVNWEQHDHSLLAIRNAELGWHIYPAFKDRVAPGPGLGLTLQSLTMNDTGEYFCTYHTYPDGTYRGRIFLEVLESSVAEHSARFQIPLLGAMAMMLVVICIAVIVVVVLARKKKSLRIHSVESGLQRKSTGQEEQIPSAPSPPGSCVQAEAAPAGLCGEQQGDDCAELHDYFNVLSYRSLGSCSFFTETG
As to the kind of experiment: flow cytometry on CHO cells overexpressing cynomolgus TIGIT, median fluorescence intensity PE-A; unit from the concentration axis.
Excerpt: as §1

Assay [5] has as its target T6, mouse TIGIT overexpressed on CHO cells (mouse, UniProt P86176 29-249).
T6 construct: whole, on cells; also called CHO-muTIGIT cells
T6 sequence (looked up): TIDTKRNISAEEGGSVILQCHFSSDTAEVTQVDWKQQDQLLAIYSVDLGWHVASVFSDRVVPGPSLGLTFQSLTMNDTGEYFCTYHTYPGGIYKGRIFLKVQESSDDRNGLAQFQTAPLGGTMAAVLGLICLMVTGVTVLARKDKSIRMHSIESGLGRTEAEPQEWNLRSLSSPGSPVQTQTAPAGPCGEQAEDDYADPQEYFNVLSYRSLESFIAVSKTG
As to the kind of experiment: flow cytometry on CHO cells overexpressing mouse TIGIT, median fluorescence intensity PE-A; unit from the concentration axis.
Excerpt: as §1

Assay [6] deals with T1, human TIGIT expressed on cells. Briefly: flow cytometry on activated human primary T cells (TIGIT), readout positive cell (%); unit from the concentration axis. From the text:
The binding activity of the anti-TIGIT antibody of the present invention to TIGIT on the surface of activated T cells was detected based on the flow cytometry detection method.
Specifically, human PBMC were sorted according to the experimental protocol provided by […] Company (stemcell, Cat. No.: #17951C) to obtain human total T cells. […] The activated T cells were adjusted to an appropriate cell density and added to a 96-well flow cytometry plate. After centrifugation, the gradiently diluted sample to be tested was added, and incubated at 4° C. for 30 minutes. Washing was carried out twice with PBS, and a fluorescent secondary antibody diluted to an appropriate concentration was added, incubated at 4° C. for 30 minutes, and washed twice with PBS. […]

Assay [7] concerns the target T6, mouse TIGIT overexpressed on CHO cells. Briefly: flow cytometry, CHO-muTIGIT cells.
Excerpt: as §1

B1: anti-TIGIT monoclonal antibody 55796-G1 (antibody, V domains shown)
VH: QLQLQESGPGLVKPAETLSLTCTVSGGSISSYDHYWTWIRQPPGKGLEWIGTVYYSGSTFHNPSLKSRVTIPVDTSKNQFSLKLSSVTAADTAVYYCARVGPDVSHPPFDYWGQGTLVTVSS
VL: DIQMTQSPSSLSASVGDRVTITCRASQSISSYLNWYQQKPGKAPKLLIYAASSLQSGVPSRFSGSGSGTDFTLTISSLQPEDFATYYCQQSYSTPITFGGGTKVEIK
notes: Wild-type human IgG1 heavy chain constant region, human kappa light chain constant region
Turning to B1, the EC50 in assay [1] was found to be 0.96 nM; in assay [3] it was 0.962 nM; in assay [4], 1.32 nM; in assay [5] it was 2.96 nM; in [6], 0.106 nM; in [7], 2.96 nM. Moreover, the dissociation constant (Kd) with mouse TIGIT-his protein turned out to be 96 nM; with human TIGIT-his protein it was 0.199 nM; in [2], 4.72 nM.

B2: anti-TIGIT monoclonal antibody 55796-G1LALA (antibody, V domains shown)
VH: QLQLQESGPGLVKPAETLSLTCTVSGGSISSYDHYWTWIRQPPGKGLEWIGTVYYSGSTFHNPSLKSRVTIPVDTSKNQFSLKLSSVTAADTAVYYCARVGPDVSHPPFDYWGQGTLVTVSS
VL: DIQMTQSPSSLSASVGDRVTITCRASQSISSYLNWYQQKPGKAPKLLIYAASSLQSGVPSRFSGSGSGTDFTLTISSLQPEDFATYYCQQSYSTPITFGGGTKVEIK
notes: Human IgG1 heavy chain constant region modified by L234A, L235A; human kappa light chain constant region; HEK293
Turning to B2, the EC50 is 0.84 nM in assay [1]; 0.845 nM in assay [3]; 1.34 nM in [4]; 3.36 nM in assay [5]; 0.0878 nM in [6]; 3.36 nM in [7]. In addition, the Kd turned out to be 61 nM in the assay with mouse TIGIT-his protein, 0.21 nM with human TIGIT-his protein and 4.9 nM in assay [2].
